Assay results from patent US20260148804A1 (NANJING GENSCRIPT BIOTECH, published 2026).

Target: T1, recombinant TNFRSF9 protein (Homo sapiens (Human), UniProt Q07011 24-186)
T1 construct: also called 4-1BB; antigen
Assay: indirect ELISA, plate coated with 0.5 ug/ml recombinant TNFRSF9 protein, antibody titrated 3-fold from 1 ug/ml
Description: The antibody affinity detection method was an enzyme-linked immunosorbent assay (ELISA) based on an indirect method. Indirect ELISA was used for evaluating the ability of the purified antibody to bind the antigen TNFRSF9 protein. The specific steps were as follows: the ELISA plate was coated with 0.5 μg/ml recombinant TNFRSF9 protein in PBS at 100 μl/well at 4° C. overnight. The plate was washed with PBS-T (0.05% Tween) and blocked with 250 μl/well of PBST containing 1% BSA at 37° C. for 2 hours. Subsequently, the blocking solution was discarded, and 100 μl of the 1 μg/ml purified antibody was added to the first well and 3-fold diluted in a gradient to prepare a total of 11 serial test concentrations, and additionally a blank well was prepared. The plate was then incubated at 37° C. for 1 hour. […] The plate was washed four times with PBST, a TMB color development solution (GenScript) was then added, and the plate was incubated in the dark at 25° C. for 15 minutes. […] The plate was read at 450 nm using a microplate reader.

EC50: 2.6 ng/mL
B1: 81E11WTH (antibody, V domains shown)
VH: QSVKESEGGLFKPTDTLTLACTVSGFSLSYNAITWVRQAPGNGLEWIGVINYDGTTVYASWAKSRSTITRNTNLNTVTLKMTSLTAADTATYFCARNFNIWGPGTLVTVSS
VL: AAVLTQTPSPVSVTVGGTVTINCQASQSVDNNNYLAWFQQKPGQPPKQLIYSASTLASGVSSRFKGSGSGTQFTLTISGVQCDDAATYYCLGEFSASSGDWNAFGGGTEVVVK
notes: also called control 81E11WTH
